B1: GDNF: Glial cell line-derived neurotrophic factor, GFRα1 ligand; purchased from Peprotech (protein, UniProt P39905 78-211, looked up)
Glial cell line-derived …: SPDKQMAVLPRRERNRQAAAANPENSRGKGRRGQRGKNRGCVLTAIHLNVTDLGLGYETKEELIFRYCSGSCDAAETTYDKILKNLSRNRRLVSDKVGQACCRPIAFDDDLSFLDDNLVYHILRKHSAKRCGCI
B2: NRTN: neuturin, GDNF family ligand of GFRα2; purchased from Peprotech (protein, UniProt Q99748 96-197, looked up)
Neurturin: ARLGARPCGLRELEVRVSELGLGYASDETVLFRYCAGACEAAARVYDLGLRRLRQRRRLRRERVRAQPCCRPTAYEDEVSFLDAHSRYHTVHELSARECACV

How the values were obtained:
RET [1] = target: T1, RET (Mus musculus, UniProt P35546); assay: RET phosphorylation in control transfected (mGFP) N2A cells; type: cell-based, murine; conditions: 2 nM GDNF or 1 nM ARTN
T1 construct: endogenous in cells
T1 sequence (P35546 29-1115): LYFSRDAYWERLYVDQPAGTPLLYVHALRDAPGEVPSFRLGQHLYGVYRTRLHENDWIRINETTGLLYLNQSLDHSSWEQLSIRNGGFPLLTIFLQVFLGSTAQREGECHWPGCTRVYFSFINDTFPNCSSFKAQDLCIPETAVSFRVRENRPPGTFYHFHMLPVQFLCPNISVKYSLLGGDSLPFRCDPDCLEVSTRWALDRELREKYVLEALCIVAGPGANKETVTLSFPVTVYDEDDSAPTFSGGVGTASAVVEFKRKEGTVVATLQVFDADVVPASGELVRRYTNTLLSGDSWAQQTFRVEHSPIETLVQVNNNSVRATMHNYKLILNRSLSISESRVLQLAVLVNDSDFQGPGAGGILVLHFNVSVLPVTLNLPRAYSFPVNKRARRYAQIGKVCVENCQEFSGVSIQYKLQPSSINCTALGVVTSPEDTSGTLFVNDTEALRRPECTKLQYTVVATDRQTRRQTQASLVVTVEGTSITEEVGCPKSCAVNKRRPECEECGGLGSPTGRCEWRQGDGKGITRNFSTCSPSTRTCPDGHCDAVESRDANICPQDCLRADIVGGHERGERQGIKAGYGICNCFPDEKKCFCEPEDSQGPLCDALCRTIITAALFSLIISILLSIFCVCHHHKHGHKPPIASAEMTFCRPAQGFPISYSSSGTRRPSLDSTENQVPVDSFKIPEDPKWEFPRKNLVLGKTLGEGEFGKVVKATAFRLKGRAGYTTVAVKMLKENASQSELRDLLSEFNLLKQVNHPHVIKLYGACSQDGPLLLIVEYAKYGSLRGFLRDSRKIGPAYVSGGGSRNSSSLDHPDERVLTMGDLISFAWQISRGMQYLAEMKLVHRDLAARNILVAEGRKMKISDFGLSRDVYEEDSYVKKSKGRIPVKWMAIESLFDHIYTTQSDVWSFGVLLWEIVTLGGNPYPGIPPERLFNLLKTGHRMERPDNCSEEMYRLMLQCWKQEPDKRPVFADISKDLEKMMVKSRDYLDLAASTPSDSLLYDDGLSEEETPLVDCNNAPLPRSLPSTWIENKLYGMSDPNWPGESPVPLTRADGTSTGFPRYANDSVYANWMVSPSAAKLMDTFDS
Protocol: (§1) Since the original report argued that XIB4035 displaces GDNF binding to GFRα1 expressing cells (FIG. 2 in Tokugawa et al., Neurochem Int 42, 81-86 (2003).), potentially ARTN, on TH-luciferase activity and Ret phosphorylation. […] In this experiment, cells were treated with GDNF or ARTN with or without XIB4035 for 10 minutes and cell lysates were either collected immediately or treatment was washed out and replaced with growth media for 30, 60, or 120 minutes. […] Therefore, we tested cells expressing only one GFRα using either N2A cells (which express RET) transfected with GFRα1 or GFRα3 expression constructs, or B(E)2-C cells, which express only GFRα2 together with RET. […] The GFRα1 or GFRα3 transfected N2A cells were then treated with XIB4035 alone, the appropriate ligand for the expressed receptor alone, or XIB4035 and ligand in combination for 10 minutes, and collected lysates immediately after treatment or 60 minutes after washout. […] Similar results were obtained with GFRα2 and NRTN using B(E)2-C cells (FIG. 8). Thus, XIB4035 is a positive modulator of signaling by GDNF family ligands and their receptors, not an agonist for GFRα1 as previously reported. […]

GFRα3/RET = target: T2, GFRα3/RET (UniProt O60609+P35546); assay: RET phosphorylation in N2A cells transfected with GFRα3; type: cell-based, human GFRα3 in murine N2A cells; conditions: 1 nM ARTN
T2 construct: N2A cells (which express RET) transfected with GFRα1 or GFRα3 expression constructs; expressed in transfected cells; host or cells: Neuro2A (N2A) cells; GFRα3 plasmid was a gift from Dr. Milbrandt; RET is endogenous
T2 sequence (O60609 32-374 limits assumed): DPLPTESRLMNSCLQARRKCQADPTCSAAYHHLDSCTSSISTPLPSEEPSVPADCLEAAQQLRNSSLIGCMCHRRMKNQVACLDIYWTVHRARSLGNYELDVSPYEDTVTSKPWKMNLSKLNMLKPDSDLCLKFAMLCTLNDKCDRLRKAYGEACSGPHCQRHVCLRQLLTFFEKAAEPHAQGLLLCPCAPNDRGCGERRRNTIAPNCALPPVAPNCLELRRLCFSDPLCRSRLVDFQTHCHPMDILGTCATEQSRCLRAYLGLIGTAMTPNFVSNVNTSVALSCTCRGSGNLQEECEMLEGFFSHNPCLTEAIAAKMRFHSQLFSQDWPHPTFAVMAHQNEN
T2 sequence (P35546 29-1115): as the sequence (P35546 29-1115) above
Protocol: (§2) Since the original report argued that XIB4035 displaces GDNF binding to GFRα1 expressing cells (FIG. 2 in Tokugawa et al., Neurochem Int 42, 81-86 (2003).), potentially ARTN, on TH-luciferase activity and Ret phosphorylation. […] In this experiment, cells were treated with GDNF or ARTN with or without XIB4035 for 10 minutes and cell lysates were either collected immediately or treatment was washed out and replaced with growth media for 30, 60, or 120 minutes. […] Therefore, we tested cells expressing only one GFRα using either N2A cells (which express RET) transfected with GFRα1 or GFRα3 expression constructs, or B(E)2-C cells, which express only GFRα2 together with RET. […] The GFRα1 or GFRα3 transfected N2A cells were then treated with XIB4035 alone, the appropriate ligand for the expressed receptor alone, or XIB4035 and ligand in combination for 10 minutes, and collected lysates immediately after treatment or 60 minutes after washout. […] Similar results were obtained with GFRα2 and NRTN using B(E)2-C cells (FIG. 8). Thus, XIB4035 is a positive modulator of signaling by GDNF family ligands and their receptors, not an agonist for GFRα1 as previously reported.
(§3) For phosphorylated Ret immunoblot experiments, cells were treated with various combinations of molecules for 10 minutes and either collected immediately or had treatment washed out and returned to control treatment media for the times indicated prior to cell collection. Lysates were collected in buffer containing: 50 mM Tris-HCL, 1% TX-100, 0.25% Deoxycholic acid, 150 mM sodium chloride, 1 mM EDTA, 0.1 mM sodium fluoride, 0.1 mM sodium pyrophosphate, 0.02 mM sodium orthovanadate, and protease inhibitors Immunoblots were blocked in 5% bovine serum albumin in tris-buffered saline+0.2% Tween 20+0.1 mM sodium fluoride, 0.1 mM sodium pyrophosphate, and 0.02 mM sodium orthovanadate and probed in blocking solution using anti-phospotyrosine (4G10) mouse monoclonal antibody (1:2000; EMD Milipore Corp., Billerica, Mass.). […]

[2] = tested on: GFRα/RET receptor signaling; assay: Tyrosine hydroxylase promoter luciferase reporter assay in SH-SY5Y-THpGL3 cells; type: cell-based, human; conditions: for maximal effect, luciferase activity: 18 nM ligand alone; for minimal ligand dose necessary to induce luciferase activity above control / luciferase activity versus ligand concentration: ligand alone; for minimal ligand dose necessary to induce luciferase activity above control: 10 minutes, washout, overnight; for luciferase activity versus ligand concentration: luciferase measured 18 hours later
Description: (§4) One goal of these studies was to determine if XIB4035 could be used for treating SFN in humans. Using the Neuro2A (N2A) murine neuroblastoma cell line, Tokugawa et al. (supra) reported XIB4035 as a competitive agonist for the GDNF receptor GFRα1 that activates the RET receptor. Since populations of DRG sensory neurons express different GFRα receptors, thus making them preferentially responsive to the particular ligands, it was important to determine if XIB4035 was specific to GFRα1 or could act on other family members. Since PSPN has no effect on peripheral sensory neurons, the GFRα1, GFRα2, and GFRα3 receptors were the focus of these studies. The SH-SY5Y, a human neuroblastoma cell line expressing mRNA for GFRα1, GFRα2, and GFRα3, was used to perform two cell-based assays; immunoblots measuring RET phosphorylation and a luciferase reporter assay using the tyrosine hydroxylase (TH) promoter. For the latter two paradigms were used, either overnight treatment immediately followed by luciferase activity measurements or 10 minute treatments followed by washout and overnight incubation prior to measurements. GDNF and ARTN induced robust TH-luciferase activity in a dose dependent manner (FIG. 3E). Because the responses to GDNF and ARTN were more robust, these two factors were chosen for further analysis.
The tyrosine hydroxylase promoter was cloned into the pGL3 basic vector (Promega, Madison, Wis., USA) at the Mlu I and Hind III sites, as previously described (Zwick, supra) (TH-pGL3). Briefly, a 2 Kb promoter region upstream from the transcription initiation site of the rat TH gene was cloned from genomic DNA using the primer sequences, […] and […]. SH-SY5Y cells were co-transfected with the TH-pGL3 and the pBabe-puromycin expression vectors at a molar ratio of 10:1. Cells were selected for stable puromycin resistance at a final concentration of 0.5 μg/ml of puromycin-dihydrochloride. Stable colonies were selected and tested for TH-directed luciferase response to GDNF family ligand stimulation. One stable clone, SH-SY5Y-THpGL3, with good signal-to-noise ratio was selected for use in the experiments.
SH-SY5Y-THpGL3 cells were maintained in DMEM/F12, 5% FBS, and 1% penicillin/streptomycin and plated on collagen coated plates (4 μg/ml). Neuro-2A cells were grown in MEM, 5% FBS, and 1% penicillin/streptomycin. BE(2)-C cells were grown in DMEM/F12 media containing 5% FBS and 1% penicillin/streptomycin. PC-12 cells were maintained in media containing RPMI-1640, 10% horse serum, 5% FBS, and 1% penicillin/streptomycin on collagen coated plates. For luciferase assays, cells were treated for either 10 minutes with washout or overnight with various molecules and assayed for firefly luciferase 16-24 hours post-treatment using the luciferase assay system (Promega, Madison, Wis., USA).

GFRα1/RET = target: T3, GFRα1/RET (UniProt P35546+Q62997); assay: RET phosphorylation in N2A cells transfected with GFRα1; type: cell-based, rat GFRα1 in murine N2A cells; conditions: 2 nM GDNF
T3 construct: N2A cells (which express RET) transfected with GFRα1 or GFRα3 expression constructs; expressed in transfected cells; host or cells: Neuro2A (N2A) cells; GFRα1 plasmid was a gift from Dr. Milbrandt; RET is endogenous
T3 sequence (Q62997 25-430 limits assumed): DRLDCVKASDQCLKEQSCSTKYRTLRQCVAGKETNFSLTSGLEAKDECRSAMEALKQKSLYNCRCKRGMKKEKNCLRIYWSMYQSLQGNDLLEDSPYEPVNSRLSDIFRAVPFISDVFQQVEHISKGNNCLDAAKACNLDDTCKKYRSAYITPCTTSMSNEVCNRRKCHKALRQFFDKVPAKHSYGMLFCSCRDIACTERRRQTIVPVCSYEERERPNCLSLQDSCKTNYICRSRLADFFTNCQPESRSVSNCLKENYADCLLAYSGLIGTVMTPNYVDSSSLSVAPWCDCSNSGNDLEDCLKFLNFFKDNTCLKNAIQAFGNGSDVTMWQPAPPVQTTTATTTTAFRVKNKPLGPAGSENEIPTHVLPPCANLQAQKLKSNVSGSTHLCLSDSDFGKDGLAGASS
T3 sequence (P35546 29-1115): as the sequence (P35546 29-1115) above
Protocol: as §2, §3

RET [3] = target: T4, RET (Homo sapiens, UniProt P07949+P56159); assay: RET phosphorylation phospho-tyrosine Western blot in SH-SY5Y cells; type: cell-based; conditions: 2 nM GDNF, two or 10 minutes
T4 construct: endogenous in cells; host or cells: SH-SY5Y (SH-SY5Y-THpGL3) human neuroblastoma cells
T4 sequence (P07949 29-1114): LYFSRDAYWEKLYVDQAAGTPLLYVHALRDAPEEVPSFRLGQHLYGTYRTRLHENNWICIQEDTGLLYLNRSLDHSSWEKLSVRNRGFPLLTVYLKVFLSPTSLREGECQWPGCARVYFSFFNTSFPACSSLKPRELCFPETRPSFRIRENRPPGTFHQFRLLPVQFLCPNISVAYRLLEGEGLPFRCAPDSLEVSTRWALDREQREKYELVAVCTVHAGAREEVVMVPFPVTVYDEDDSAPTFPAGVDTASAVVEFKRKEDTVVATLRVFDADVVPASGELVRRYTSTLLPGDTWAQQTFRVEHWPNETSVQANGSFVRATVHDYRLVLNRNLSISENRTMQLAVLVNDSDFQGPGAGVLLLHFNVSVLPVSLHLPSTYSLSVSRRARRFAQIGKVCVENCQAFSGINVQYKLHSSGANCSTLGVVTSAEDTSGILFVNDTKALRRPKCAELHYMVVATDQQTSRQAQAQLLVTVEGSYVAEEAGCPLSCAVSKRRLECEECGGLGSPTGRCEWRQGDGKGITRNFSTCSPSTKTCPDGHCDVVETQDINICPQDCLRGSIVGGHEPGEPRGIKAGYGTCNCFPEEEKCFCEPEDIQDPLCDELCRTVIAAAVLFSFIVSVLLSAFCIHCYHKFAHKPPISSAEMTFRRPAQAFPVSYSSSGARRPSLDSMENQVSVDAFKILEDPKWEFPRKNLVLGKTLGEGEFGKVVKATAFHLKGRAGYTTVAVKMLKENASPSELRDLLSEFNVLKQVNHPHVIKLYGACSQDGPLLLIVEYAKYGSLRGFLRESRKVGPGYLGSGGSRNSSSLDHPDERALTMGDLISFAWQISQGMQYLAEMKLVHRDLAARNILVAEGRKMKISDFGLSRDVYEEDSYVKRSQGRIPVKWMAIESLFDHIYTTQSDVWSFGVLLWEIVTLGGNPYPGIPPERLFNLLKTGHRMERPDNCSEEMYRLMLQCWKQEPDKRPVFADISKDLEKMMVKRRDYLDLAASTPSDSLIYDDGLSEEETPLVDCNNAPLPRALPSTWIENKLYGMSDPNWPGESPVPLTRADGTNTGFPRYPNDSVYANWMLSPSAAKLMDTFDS
T4 sequence (P56159 25-429 limits assumed): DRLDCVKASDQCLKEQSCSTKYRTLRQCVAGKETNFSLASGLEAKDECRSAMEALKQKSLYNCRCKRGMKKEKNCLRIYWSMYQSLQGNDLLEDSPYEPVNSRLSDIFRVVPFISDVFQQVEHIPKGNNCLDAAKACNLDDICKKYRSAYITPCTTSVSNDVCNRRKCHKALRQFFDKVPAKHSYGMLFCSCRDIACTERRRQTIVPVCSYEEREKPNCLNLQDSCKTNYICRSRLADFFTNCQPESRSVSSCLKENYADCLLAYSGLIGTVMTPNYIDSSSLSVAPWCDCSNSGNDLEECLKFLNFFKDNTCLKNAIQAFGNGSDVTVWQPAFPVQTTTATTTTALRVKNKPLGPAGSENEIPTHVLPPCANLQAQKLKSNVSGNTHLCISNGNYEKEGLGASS
Description: as §4
Since the original report argued that XIB4035 displaces GDNF binding to GFRα1 expressing cells (FIG. 2 in Tokugawa et al., Neurochem Int 42, 81-86 (2003).), potentially ARTN, on TH-luciferase activity and Ret phosphorylation. […] In this experiment, cells were treated with GDNF or ARTN with or without XIB4035 for 10 minutes and cell lysates were either collected immediately or treatment was washed out and replaced with growth media for 30, 60, or 120 minutes. […] Therefore, we tested cells expressing only one GFRα using either N2A cells (which express RET) transfected with GFRα1 or GFRα3 expression constructs, or B(E)2-C cells, which express only GFRα2 together with RET. […]

GFRα2/RET = target: T5, GFRα2/RET (Homo sapiens, UniProt O00451+P07949); assay: NRTN/GFRα2-induced RET phosphorylation in B(E)2-C cells; type: cell-based; conditions: 2 nM NRTN alone, 10 minutes, then 60 minutes growth medium
T5 construct: B(E)2-C cells, which express only GFRα2 together with RET; endogenous in cells; host or cells: B(E)2-C / BE(2)-C cells
T5 sequence (O00451 22-444 limits assumed): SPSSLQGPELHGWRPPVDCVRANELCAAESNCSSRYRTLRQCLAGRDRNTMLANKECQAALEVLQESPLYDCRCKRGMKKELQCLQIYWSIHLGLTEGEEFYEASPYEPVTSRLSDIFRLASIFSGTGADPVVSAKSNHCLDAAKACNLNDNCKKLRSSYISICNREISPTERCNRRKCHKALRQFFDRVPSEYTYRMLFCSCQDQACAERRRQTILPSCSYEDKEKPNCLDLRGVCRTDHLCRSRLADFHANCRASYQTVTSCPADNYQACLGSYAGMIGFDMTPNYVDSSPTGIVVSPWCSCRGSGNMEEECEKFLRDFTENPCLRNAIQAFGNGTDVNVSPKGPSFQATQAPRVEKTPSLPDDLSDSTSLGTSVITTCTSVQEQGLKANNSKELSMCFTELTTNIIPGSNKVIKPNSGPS
T5 sequence (P07949 29-1114): as the sequence (P07949 29-1114) above
Protocol: B(E)2-C cells, which express GFRα2, were treated under different conditions (no treatment, 2 nM NRTN, or 2 nM NRTN with 20 μM XIB4035) for 10 minutes. Cells were either lysed immediately or after incubation in growth medium for an additional 60 minutes.
as §1, with “8).” for “8). Thus, XIB4035 is a positive modulator of signaling by GDNF family ligands and their receptors, not an agonist for GFRα1 as previously reported.”

| Molecule | RET phosphorylation (RET [1]) | RET phosphorylation (GFRα3/RET) | maximal effect, luciferase activity [2] [fold over control] | minimal ligand dose necessary to induce luciferase activity above control [2] [pM] | luciferase activity versus ligand concentration [2] | TH promoter activity (luciferase) ([2]; 2 nM GDNF, 10 minutes then overnight in regular medium, or overnight) | RET phosphorylation (GFRα1/RET) | RET phosphorylation (RET [3]) | RET phosphorylation at 60 min (GFRα2/RET) |
| --- | --- | --- | --- | --- | --- | --- | --- | --- | --- |
| ARTN: artemin, GDNF family ligand of GFRα3; purchased from Peprotech | No RET phosphorylation was detected | induced RET phosphorylation | 2.78±0.44 | 75 | dose-dependent increase | – | – | – | – |
| B1 | No RET phosphorylation was detected | – | 2.76±0.32 | 75 | dose-dependent increase | increases TH promoter activity | induced RET phosphorylation | induced | – |
| B2 | – | – | – | – | dose-dependent increase | – | – | – | not detectable |
